The values below are quoted from earlier work in paper PMC6239910.

As a reminder, the Kd is the free concentration of one partner at which half of the binding sites on the other are occupied at equilibrium, for simple one-to-one binding.

The series has as its target Ube2D3-Ub conjugate (Homo sapiens) (UniProt P61077).

UHRF1, sequence (Q96T88 whole entry): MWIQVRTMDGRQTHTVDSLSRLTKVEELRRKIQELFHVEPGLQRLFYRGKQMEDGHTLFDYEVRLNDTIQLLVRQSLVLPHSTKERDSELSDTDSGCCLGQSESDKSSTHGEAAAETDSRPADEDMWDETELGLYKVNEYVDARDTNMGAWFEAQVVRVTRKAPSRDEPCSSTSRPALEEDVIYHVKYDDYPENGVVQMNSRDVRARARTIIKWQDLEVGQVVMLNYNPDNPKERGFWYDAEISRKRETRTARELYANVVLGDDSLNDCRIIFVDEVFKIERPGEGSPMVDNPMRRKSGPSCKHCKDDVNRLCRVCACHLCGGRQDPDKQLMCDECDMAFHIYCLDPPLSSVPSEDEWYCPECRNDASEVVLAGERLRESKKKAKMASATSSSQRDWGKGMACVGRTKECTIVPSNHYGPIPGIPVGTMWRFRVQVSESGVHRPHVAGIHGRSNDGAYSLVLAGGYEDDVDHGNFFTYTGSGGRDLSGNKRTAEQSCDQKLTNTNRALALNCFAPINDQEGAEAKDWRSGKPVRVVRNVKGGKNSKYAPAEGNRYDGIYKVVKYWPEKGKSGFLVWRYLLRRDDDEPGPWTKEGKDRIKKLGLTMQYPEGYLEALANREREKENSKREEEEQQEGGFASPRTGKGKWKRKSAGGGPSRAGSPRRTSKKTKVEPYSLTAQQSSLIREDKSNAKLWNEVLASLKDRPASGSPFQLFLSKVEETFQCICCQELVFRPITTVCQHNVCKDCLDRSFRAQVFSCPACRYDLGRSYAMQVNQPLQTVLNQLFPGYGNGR
Ube2D3-Ub conjugate (Homo sapiens), sequence (P61077 whole entry): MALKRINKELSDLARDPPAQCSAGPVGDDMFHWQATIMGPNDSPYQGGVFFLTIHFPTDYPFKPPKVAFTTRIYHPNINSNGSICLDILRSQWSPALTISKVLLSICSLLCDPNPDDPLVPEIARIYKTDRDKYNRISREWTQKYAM

With UHRF1 (from UniProt Q96T88), the Kd is 3.2 µM.
